What all share (assay): holdup assay
Design in all cases: key: below the threshold = too weak to quantify, mostly under pKd 3.1 to 4

In assay [1] the target is T1, APBA1_1, Q02410.
T1 sequence (Q02410 651-752, limits assumed, looked up): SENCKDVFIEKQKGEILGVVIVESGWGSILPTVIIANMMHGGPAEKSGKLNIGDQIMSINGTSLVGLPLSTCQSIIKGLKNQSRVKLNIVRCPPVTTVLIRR

Assay [2] deals with T2, APBA2_2, Q99767.
T2 sequence (Q99767 654-744, limits assumed, looked up): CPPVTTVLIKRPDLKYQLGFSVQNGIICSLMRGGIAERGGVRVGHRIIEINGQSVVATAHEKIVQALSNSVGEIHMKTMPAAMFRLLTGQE

Assay [3] has as its target T3, ARHGEF11, O15085.
T3 sequence (O15085 42-136, limits assumed, looked up): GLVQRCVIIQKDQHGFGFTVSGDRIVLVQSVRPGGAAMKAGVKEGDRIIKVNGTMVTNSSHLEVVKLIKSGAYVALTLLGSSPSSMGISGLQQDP

In assay [4] the target is DLG2_3, Q15700.
The target of assay [5] is T4, DLG3_2, Q92796.
T4 sequence (Q92796 221-321, limits assumed, looked up): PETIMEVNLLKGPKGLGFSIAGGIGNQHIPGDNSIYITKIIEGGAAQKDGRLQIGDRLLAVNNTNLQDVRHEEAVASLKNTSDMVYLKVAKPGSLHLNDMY

In assay [6] the target is T5, DLG3_3, Q92796.
T5 sequence (Q92796 374-475, limits assumed, looked up): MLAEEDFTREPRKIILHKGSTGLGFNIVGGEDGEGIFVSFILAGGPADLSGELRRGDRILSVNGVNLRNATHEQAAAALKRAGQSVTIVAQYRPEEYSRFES

In assay [7] the target is DLG5_1, Q8TDM6.
Chain of DLG5_1, Q8TDM6 (Q8TDM6 617-713): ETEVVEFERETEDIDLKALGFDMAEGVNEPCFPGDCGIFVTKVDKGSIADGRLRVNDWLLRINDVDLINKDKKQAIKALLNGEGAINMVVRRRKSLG
The target in assay [8] is GOPC, Q9HD26.
The target of assay [9] is GRASP, Q7Z6J2.
Chain of GRASP, Q7Z6J2 (Q7Z6J2 96-193): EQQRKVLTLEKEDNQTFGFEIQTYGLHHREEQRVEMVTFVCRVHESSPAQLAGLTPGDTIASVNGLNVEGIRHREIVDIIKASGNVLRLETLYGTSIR
Assay [10] addresses GRID2IP_2, A4D2P6.
The target in assay [11] is T6, GRIP1_2, Q9Y3R0.
T6 sequence (Q9Y3R0 145-248, limits assumed, looked up): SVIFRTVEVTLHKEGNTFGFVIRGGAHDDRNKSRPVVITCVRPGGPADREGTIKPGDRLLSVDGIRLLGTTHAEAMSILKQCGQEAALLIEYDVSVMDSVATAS

Assay [12] addresses T7, GRIP1_3, Q9Y3R0.
T7 sequence (Q9Y3R0 247-346, limits assumed, looked up): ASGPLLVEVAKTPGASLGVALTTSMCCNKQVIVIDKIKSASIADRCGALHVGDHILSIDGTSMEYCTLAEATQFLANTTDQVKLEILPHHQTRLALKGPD

Assay [13] concerns the target GRIP2_4, Q9C0E4.
The target of assay [14] is T8, HTRA3, P83110.
T8 sequence (P83110 354-453, limits assumed, looked up): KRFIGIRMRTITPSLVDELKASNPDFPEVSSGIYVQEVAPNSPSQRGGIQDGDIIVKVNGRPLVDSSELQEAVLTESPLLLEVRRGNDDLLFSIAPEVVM

The target of assay [15] is Inadl_1, Q8NI35.
Chain of Inadl_1, Q8NI35 (Q8NI35 113-229): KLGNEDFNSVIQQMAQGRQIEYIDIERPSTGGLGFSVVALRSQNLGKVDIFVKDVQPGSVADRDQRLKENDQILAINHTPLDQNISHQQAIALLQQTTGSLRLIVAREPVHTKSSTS
The target of assay [16] is Inadl_2, Q8NI35.
Chain of Inadl_2, Q8NI35 (Q8NI35 238-335): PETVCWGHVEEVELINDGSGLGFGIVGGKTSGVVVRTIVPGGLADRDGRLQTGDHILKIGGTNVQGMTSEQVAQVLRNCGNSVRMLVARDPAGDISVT
The target of assay [17] is LAP2, Q96RT1.
Chain of LAP2, Q96RT1 (Q96RT1 other isoform, or with tags, fused parts or gaps): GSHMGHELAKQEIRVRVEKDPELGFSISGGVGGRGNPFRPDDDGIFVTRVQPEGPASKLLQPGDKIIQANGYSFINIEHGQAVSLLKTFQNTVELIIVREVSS
Assay [18] addresses MAGI1_2, Q96QZ7.
Assay [19] concerns the target T9, MPDZ_12, O75970.
T9 sequence (O75970 1857-1958, limits assumed, looked up): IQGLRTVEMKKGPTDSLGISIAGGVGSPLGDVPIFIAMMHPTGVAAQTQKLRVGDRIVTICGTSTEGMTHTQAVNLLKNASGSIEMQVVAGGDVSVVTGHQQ

Assay [20] has as its target T10, MPP6, Q9NZW5.
T10 sequence (Q9NZW5 125-219, limits assumed, looked up): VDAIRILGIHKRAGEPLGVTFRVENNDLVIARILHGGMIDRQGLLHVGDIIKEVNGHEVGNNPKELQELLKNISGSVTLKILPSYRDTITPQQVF

Assay [21] has as its target T11, PARD3B_1, Q8TEW8.
T11 sequence (Q8TEW8 196-299, limits assumed, looked up): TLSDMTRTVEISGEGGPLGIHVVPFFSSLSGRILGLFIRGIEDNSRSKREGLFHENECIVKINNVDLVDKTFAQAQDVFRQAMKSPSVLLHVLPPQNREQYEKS

Assay [22] has as its target SCRIB_2, Q14160.
In assay [23] the target is T12, SHANK1, Q9Y566.
T12 sequence (Q9Y566 658-767, limits assumed, looked up): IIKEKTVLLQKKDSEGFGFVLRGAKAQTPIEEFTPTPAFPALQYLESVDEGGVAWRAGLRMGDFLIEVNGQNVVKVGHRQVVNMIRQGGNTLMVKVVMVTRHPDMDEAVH

In assay [24] the target is TJP1_2, Q07157.
Chain of TJP1_2, Q07157 (Q07157 181-274): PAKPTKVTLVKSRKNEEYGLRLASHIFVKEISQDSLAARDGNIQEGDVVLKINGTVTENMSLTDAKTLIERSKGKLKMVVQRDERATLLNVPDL
[25] abbreviates: modified: phospho on T at position -2 from the C-terminal residue.
[26] abbreviates: plain residues with an end cap or a label only (N-terminal biotin on a linker: ado-ado).

Chain of GRID2IP_2, A4D2P6 (A4D2P6 272-370): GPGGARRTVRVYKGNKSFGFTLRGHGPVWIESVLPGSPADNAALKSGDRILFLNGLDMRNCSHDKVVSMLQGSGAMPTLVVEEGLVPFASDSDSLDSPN
Chain of SCRIB_2, Q14160 (Q14160 857-960): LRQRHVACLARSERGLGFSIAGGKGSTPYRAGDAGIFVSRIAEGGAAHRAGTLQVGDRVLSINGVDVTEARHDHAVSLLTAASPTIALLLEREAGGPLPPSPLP
Chain of MAGI1_2, Q96QZ7 (Q96QZ7 456-580): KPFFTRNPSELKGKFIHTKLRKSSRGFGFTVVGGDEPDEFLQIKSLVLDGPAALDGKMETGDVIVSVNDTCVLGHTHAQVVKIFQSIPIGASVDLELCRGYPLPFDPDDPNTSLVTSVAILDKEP
Chain of GRIP2_4, Q9C0E4 (Q9C0E4 446-548): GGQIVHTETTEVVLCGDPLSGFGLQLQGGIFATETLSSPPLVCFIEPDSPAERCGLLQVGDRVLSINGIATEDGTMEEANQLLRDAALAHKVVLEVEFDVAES

Regarding RRVRKLPSTTL [RPS6KA1_-2P, Q15418], the negative-log Kd (pKd) entry in assay [1] (setting [25]), in assay [2] (setting [25]), in assay [3] (setting [25]), in [4] (setting [25]), in assay [5] (setting [25]) and in [6] (setting [25]) was “below the threshold” each time. Further, the pKd result was “below the threshold” in assay [7] (setting [25]); “below the threshold” in assay [8] (setting [25]); “below the threshold” in assay [9] (setting [25]); “below the threshold” in [10] (setting [25]); 3.52 in assay [11] (setting [25]); “below the threshold” in assay [12] (setting [25]). Besides, the pKd entry in assay [13] (setting [25]), in assay [14] (setting [25]), in assay [15] (setting [25]), in [16] (setting [25]), in assay [17] (setting [25]) and in assay [18] (setting [25]) was “below the threshold” in each case. Moreover, the pKd entry in assay [19] (setting [25]) was “below the threshold”; in assay [20] (setting [25]), “below the threshold”; in assay [21] (setting [25]) it was 3.9; in assay [22] (setting [25]) it was “below the threshold”; in [23] (setting [25]), “below the threshold”; in assay [24] (setting [25]) it was “below the threshold”.

SMLNRRTTPV [CACNG4, Q9UBN1]: the pKd result in assay [1] (setting [26]) was “below the threshold”; in assay [2] (setting [26]) it was “below the threshold”; in [3] (setting [26]), 3.89; in [4] (setting [26]), 4.89; in assay [5] (setting [26]), 4.46; in assay [6] (setting [26]), 4.77. For the same molecule, the negative-log Kd (pKd) entry in assay [7] (setting [26]) is “below the threshold”; in [8] (setting [26]), “below the threshold”; in assay [9] (setting [26]), 4.3; in [10] (setting [26]), 3.92; in assay [11] (setting [26]) it was “below the threshold”; in assay [12] (setting [26]), “below the threshold”. Moreover, the negative-log Kd (pKd) result was “below the threshold” in assay [13] (setting [26]); “below the threshold” in [14] (setting [26]); “below the threshold” in assay [15] (setting [26]); “below the threshold” in assay [16] (setting [26]); 3.49 in [17] (setting [26]); 4.82 in [18] (setting [26]). For the same molecule, the negative-log Kd (pKd) entry in assay [19] (setting [26]) is “below the threshold”; in assay [20] (setting [26]) it was “below the threshold”; in assay [21] (setting [26]), “below the threshold”; in [22] (setting [26]), 3.53; in [23] (setting [26]), “below the threshold”; in [24] (setting [26]) it was “below the threshold”.

For the molecule LSEFKAMDSF [CTNNA2, P26232], the pKd entry was “below the threshold” in [1] (setting [26]); “below the threshold” in assay [2] (setting [26]); “below the threshold” in assay [3] (setting [26]); 3.72 in assay [4] (setting [26]); 4.16 in assay [5] (setting [26]); “below the threshold” in assay [6] (setting [26]). Also, the pKd result is “below the threshold” in [7] (setting [26]); “below the threshold” in [8] (setting [26]); 4.13 in assay [9] (setting [26]); “below the threshold” in assay [10] (setting [26]); “below the threshold” in assay [11] (setting [26]); “below the threshold” in [12] (setting [26]). Besides, the pKd entry in assay [13] (setting [26]), in assay [14] (setting [26]), in assay [15] (setting [26]), in [16] (setting [26]), in assay [17] (setting [26]) and in [18] (setting [26]) was “below the threshold” each time. In addition, the pKd result in assay [19] (setting [26]) was “below the threshold”; in assay [20] (setting [26]) it was “below the threshold”; in assay [21] (setting [26]) it was 3.59; in assay [22] (setting [26]), “below the threshold”; in assay [23] (setting [26]) it was “below the threshold”; in assay [24] (setting [26]), “below the threshold”.

For the molecule EEDTAEKDEL [HSPA5, P11021], the pKd result was “below the threshold” in assay [1] (setting [26]); 3.56 in [2] (setting [26]); 3.56 in assay [3] (setting [26]); “below the threshold” in assay [4] (setting [26]); “below the threshold” in assay [5] (setting [26]); “below the threshold” in assay [6] (setting [26]). In addition, the pKd entry was “below the threshold” in [7] (setting [26]); “below the threshold” in [8] (setting [26]); 3.94 in [9] (setting [26]); “below the threshold” in [10] (setting [26]); “below the threshold” in assay [11] (setting [26]); “below the threshold” in assay [12] (setting [26]). Besides, the pKd result in assay [13] (setting [26]), in assay [14] (setting [26]), in assay [15] (setting [26]), in [16] (setting [26]), in assay [17] (setting [26]) and in assay [18] (setting [26]) was “below the threshold” in each case. Besides, the pKd in assay [19] (setting [26]) is 3.52; in assay [20] (setting [26]) it was “below the threshold”; in assay [21] (setting [26]), 3.72; in assay [22] (setting [26]) it was “below the threshold”; in assay [23] (setting [26]), “below the threshold”; in [24] (setting [26]), “below the threshold”.
